Experimental data from patent publication US20110124012A1.

Assays:
[1] = molecular target: human N-terminal-pro B-type natriuretic peptide (human); assay: two-step sandwich chemiluminescent immunoassay ([..]); capture 15F11 on microparticles, acridinium-labeled 15C4; NT-proBNP at 288.7 pM
[2] = molecular target: human B-type natriuretic peptide (human); assay: two-step sandwich chemiluminescent immunoassay ([..]); capture 15F11 on microparticles, acridinium-labeled 15C4; BNP at 43.8 pM
[3] = molecular target: human B-type natriuretic peptide (human); assay: two-step sandwich chemiluminescent immunoassay ([..]); capture 8.1 on microparticles, acridinium-labeled 15C4; BNP at 288.7 pM
[4] = molecular target: human N-terminal-pro B-type natriuretic peptide (human); assay: two-step sandwich chemiluminescent immunoassay ([..]); capture 15F11 on microparticles, acridinium-labeled 15C4; NT-proBNP at 86.6 pM
[5] = molecular target: human B-type natriuretic peptide (human); assay: two-step sandwich chemiluminescent immunoassay ([..]); capture 15F11 on microparticles, acridinium-labeled 15C4; BNP at 577.4 pM
[6] = molecular target: human B-type natriuretic peptide (human); assay: two-step sandwich chemiluminescent immunoassay ([..]); capture 8.1 on microparticles, acridinium-labeled 15C4; BNP at 577.4 pM
[7] = molecular target: human pro B-type natriuretic peptide (human); assay: two-step sandwich chemiluminescent immunoassay ([..]); capture 8.1 on microparticles, acridinium-labeled 15C4; proBNP at 43.8 pM
[8] = molecular target: human pro B-type natriuretic peptide (human); assay: two-step sandwich chemiluminescent immunoassay ([..]); capture 8.1 on microparticles, acridinium-labeled 15C4; proBNP at 86.6 pM
[9] = molecular target: human N-terminal-pro B-type natriuretic peptide (human); assay: two-step sandwich chemiluminescent immunoassay ([..]); capture 15F11 on microparticles, acridinium-labeled 15C4; NT-proBNP at 43.8 pM
[10] = molecular target: human N-terminal-pro B-type natriuretic peptide (human); assay: two-step sandwich chemiluminescent immunoassay ([..]); capture 15F11 on microparticles, acridinium-labeled 15C4; NT-proBNP at 0 pM (blank)
[11] = molecular target: human B-type natriuretic peptide (human); assay: two-step sandwich chemiluminescent immunoassay ([..]); capture 8.1 on microparticles, acridinium-labeled 15C4; BNP at 0 pM (blank)
[12] = molecular target: human B-type natriuretic peptide (human); assay: two-step sandwich chemiluminescent immunoassay ([..]); capture 15F11 on microparticles, acridinium-labeled 15C4; BNP at 0 pM (blank)
[13] = molecular target: human N-terminal-pro B-type natriuretic peptide (human); assay: two-step sandwich chemiluminescent immunoassay ([..]); capture 15F11 on microparticles, acridinium-labeled 15C4; NT-proBNP at 577.4 pM
[14] = molecular target: human pro B-type natriuretic peptide (human); assay: two-step sandwich chemiluminescent immunoassay ([..]); capture 8.1 on microparticles, acridinium-labeled 15C4; proBNP at 0 pM (blank)
[15] = molecular target: human B-type natriuretic peptide (human); assay: two-step sandwich chemiluminescent immunoassay ([..]); capture 15F11 on microparticles, acridinium-labeled 15C4; BNP at 86.6 pM
[16] = molecular target: human B-type natriuretic peptide (human); assay: two-step sandwich chemiluminescent immunoassay ([..]); capture 15F11 on microparticles, acridinium-labeled 15C4; BNP at 288.7 pM
[17] = molecular target: human pro B-type natriuretic peptide (human); assay: two-step sandwich chemiluminescent immunoassay ([..]); capture 8.1 on microparticles, acridinium-labeled 15C4; proBNP at 577.4 pM
[18] = molecular target: human B-type natriuretic peptide (human); assay: two-step sandwich chemiluminescent immunoassay ([..]); capture 8.1 on microparticles, acridinium-labeled 15C4; BNP at 43.8 pM
[19] = molecular target: human pro B-type natriuretic peptide (human); assay: two-step sandwich chemiluminescent immunoassay ([..]); capture 8.1 on microparticles, acridinium-labeled 15C4; proBNP at 288.7 pM
[20] = molecular target: human B-type natriuretic peptide (human); assay: two-step sandwich chemiluminescent immunoassay ([..]); capture 8.1 on microparticles, acridinium-labeled 15C4; BNP at 86.6 pM

human pro B-type natriuretic peptide (human), sequence (chain, as listed by the source): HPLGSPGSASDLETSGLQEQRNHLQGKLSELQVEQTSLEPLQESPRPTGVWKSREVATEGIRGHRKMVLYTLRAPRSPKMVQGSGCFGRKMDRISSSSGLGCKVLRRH
human B-type natriuretic peptide (human), sequence (peptide, as listed by the source): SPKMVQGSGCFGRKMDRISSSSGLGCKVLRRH
human N-terminal-pro B-type natriuretic peptide (human), sequence (chain, as listed by the source): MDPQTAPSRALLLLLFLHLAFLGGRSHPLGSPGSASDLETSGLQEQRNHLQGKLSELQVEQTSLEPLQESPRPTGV

## monoclonal antibody 15C4
[1]
  mean rlus: 317000 RLU
[2]
  mean rlus: 1040 RLU
[3]
  mean rlus: 732 RLU
[4]
  mean rlus: 62700 RLU
[5]
  mean rlus: 1140 RLU
[6]
  mean rlus: 701 RLU
[7]
  mean rlus: 5480 RLU
[8]
  mean rlus: 12000 RLU
[9]
  mean rlus: 22400 RLU
[10]
  mean rlus: 1140 RLU
[11]
  mean rlus: 745 RLU
[12]
  mean rlus: 1200 RLU
[13]
  mean rlus: 658000 RLU
[14]
  mean rlus: 659 RLU
[15]
  mean rlus: 1080 RLU
[16]
  mean rlus: 1130 RLU
[17]
  mean rlus: 116000 RLU
[18]
  mean rlus: 567 RLU
[19]
  mean rlus: 43000 RLU
[20]
  mean rlus: 713 RLU
